For the data set the following is noted: N-glycosylation at N74.

Five substances from article PMC6415414 can be followed below.

Turning to “Candida antarctica lipase B (CaLB): Asn74Ala (CaLB-degl and CaLB-degl-lid), residual activity after 10 min heat incubation”, the stability_or_folding result was “decreases, >50% activity lost at 48 °C and almost inactive at 58 °C, vs 42% relative activity at 58 °C for wt”.
As for “Candida antarctica lipase B (CaLB): Asn74Ala (CaLB-degl), purified free enzyme, pNPB assay”, the enzymatic_activity result is “decreases, hydrolytic activity 10.49 to 7.57 µmol(min∙mg)−1”.
Still for that read-out and setting: next, “Candida antarctica lipase B (CaLB): Asn74Ala (CaLB-degl), ε-caprolactone polymerization in aqueous toluene”: “increases, Free enzyme: Mn 1100 to 1900 Da, Coligo 13% to 29% (factor 1.7). Immobilized: Mn 5200 to 6700 Da, Coligo 86% to 91%”.
Regarding “Candida antarctica lipase B (CaLB): Asn74Ala, S. cerevisiae MTP culture supernatant, pNPB assay”, the enzymatic_activity result is “no change, 94% relative hydrolytic activity”.
For the substance “Candida antarctica lipase B (CaLB): Asn74Ser, S. cerevisiae MTP culture supernatant, pNPB assay”, the enzymatic_activity result is reported as “decreases”.
